Test results taken from US20160297857A1.

Target: PA1b-binding site
Test: ligand binding assay with 125I-labeled toxin

Binder | Ki [nM]
ASCPNVGAVCSPFETKPCGNVKDCRCLPWGLFFGTCINPTG [AG41] | 1.3
AKCGEACDTQFNFCNAGDGCRCFITDAYLTLPGFCAQLST [AS40] | 10.3
ASCNGVCSPFEMPPCGTSACRCIPVGLVIGYCRNPSG [PA1b polypeptide of Pisum sativum] | 17
ADCSGICSPFEMPPCRSSDCRCIPIALIGGFCINPIS [AS37] | 15
EFCSSVGSFCSPFNTNPCGYLGNCRCVPYYLYGGTCENPFG [EG41] | 72.8
DECWGPCSVLQTPPCPLSKCYCIPLFLVVGYCSHASS [DS37] | 694
